Laboratory results as given in PMC3268813 (Scientific Reports, 2012).
Numbering of substitutions follows the chain as printed. Names and notes keep the numbering of the source.

Experiments:
SEC = target: the molecule itself; experiment: SEC
GST-tagged chicken CK2α = target: T1, GST-tagged chicken CK2α (chicken, UniProt P21868 1-391); experiment: pull-down
T1 sequence: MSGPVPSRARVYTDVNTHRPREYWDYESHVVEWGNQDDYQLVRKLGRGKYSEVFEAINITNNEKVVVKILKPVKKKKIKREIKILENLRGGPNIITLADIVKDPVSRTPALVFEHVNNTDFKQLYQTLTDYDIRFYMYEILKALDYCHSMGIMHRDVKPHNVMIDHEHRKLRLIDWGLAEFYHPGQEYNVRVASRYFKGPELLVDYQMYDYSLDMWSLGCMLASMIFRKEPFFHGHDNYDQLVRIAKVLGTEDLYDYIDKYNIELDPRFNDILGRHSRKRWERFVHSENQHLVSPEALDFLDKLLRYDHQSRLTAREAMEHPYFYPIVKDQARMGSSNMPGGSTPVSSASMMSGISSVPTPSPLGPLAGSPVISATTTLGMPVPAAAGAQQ

[1] = target: T2, GST-tagged chicken CK2α kinase dead (K68A mutant) (chicken, UniProt P21868 1-391, K68A); experiment: pull-down
T2 sequence: T1 sequence with K68A

B1: CRN2 wild-type C-terminal polypeptide (aa300-474), His6-tagged (domain or fragment)
chain: PYVHYLNTFSSKEPQRGMGYMPKRGLDVNKCEIARFFKLHERKCEPIIMTVPRKSDLFQDDLYPDTAGPEAALEAEEWFEGKNADPILISLKHGYIPGKNRDLKVVKKNILDSKPTANKKCDLISIPKKTTDTASVQNEAKLDEILKEIKSIKDTICNQDERISKLEQQMAKIAA
stoichiometry N (SEC): 3
binding result (GST-tagged chicken CK2α): binds
binding result [1]: binds

B2: CRN2 S463A phospho-resistant C-terminal polypeptide (aa300-474), His6-tagged (domain or fragment)
chain: B1 chain with S164A
stoichiometry N (SEC): 3

B3: CRN2 S463D phosphomimetic C-terminal polypeptide (aa300-474), His6-tagged (domain or fragment)
chain: B1 chain with S164D
stoichiometry N (SEC): 3
binding result (GST-tagged chicken CK2α): binds
binding result [1]: binds
